The values below come from the supplement of paper PMC11811203.

The chains are these.
B1: THAP1; numbered along this chain (parent)
chain: MVQSCSAYGCKNRYDKDKPVSFHKFPLTRPSLCKEWEAAVRRKNFKPTKYSSICSEHFTPDCFKRECNNKLLKENAVPTIFLCTEPHDKKEDLLEPQEQLPPPPLPPPVSQVDAAIGLLMPPLQTPVNLSVFCDHNYTVEDTMHQRKRIHQLEQQVEKLRKKLKTAQQRCRRQERQLEKLKEVVHFQKEKDDVSERGYVILPNDYFEIVEVPA

The data set covers variants of B1. The data set can be described thus: THAP1 transcriptional activity (GFP+/GFP- enrichment relative to wild-type constructs) (ratio to WT); higher = more THAP1 activity (PSMB5 reporter activation). The note with it: with PSMB5 promoter-GFP reporter. The procedure, abridged:
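Variants were counted by Illumina sequencing of genomic DNA amplicons from BFP+ cells sorted into GFP-bright and GFP-dim bins five days after lentiviral transduction, in duplicate at MOI ~0.3. The library changed each of residues 2–213 of human THAP1 to all 20 amino acids and was introduced into THAP1-knockout HEK-293T cells with mClover3 knocked in at endogenous PSMB5. Activity equals the replicate-mean bright/dim read fold change over the mean of wild-type synonymous constructs.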
Regarding MVQSCSAYGCKNRYDKDKPVSFHKFPLTRPSLCKEWEAAVRRKNFKPTKYSSICSEHFTPDCFKRECNNKLLKENAVPTIFLCTEPHDKKEDLLEPQEQLPPFPLPPPVSQVDAAIGLLMPPLQTPVNLSVFCDHNYTVEDTMHQRKRIHQLEQQVEKLRKKLKTAQQRCRRQERQLEKLKEVVHFQKEKDDVSERGYVILPNDYFEIVEVPA [P103F], the THAP1 transcriptional activity was found to be 0.27.

With MVQSCSAYGCKNRYDKDKPVSFHKFPLTRPSLCKEWEAAVRRKNFKPTKYSSICSEHFTPDCFKRECNNKLLKENAVPTIFLCTEPHDKKEDLLEPQEQLPPEPLPPPVSQVDAAIGLLMPPLQTPVNLSVFCDHNYTVEDTMHQRKRIHQLEQQVEKLRKKLKTAQQRCRRQERQLEKLKEVVHFQKEKDDVSERGYVILPNDYFEIVEVPA [P103E], the THAP1 transcriptional activity was 1.22.

For MVQSCSAYGCKNRYDKDKPVSFHKFPLTRPSLCKEWEAAVRRKNFKPTKYSSICSEHFTPDCFKRECNNKLLKENAVPTIFLCTEPHDKKEDLLEPQEQLPPHPLPPPVSQVDAAIGLLMPPLQTPVNLSVFCDHNYTVEDTMHQRKRIHQLEQQVEKLRKKLKTAQQRCRRQERQLEKLKEVVHFQKEKDDVSERGYVILPNDYFEIVEVPA [P103H], the THAP1 transcriptional activity is 0.719.

Turning to MVQSCSAYGCKNRYDKDKPVSFHKFPLTRPSLCKEWEAAVRRKNFKPTKYSSICSEHFTPDCFKRECNNKLLKENAVPTIFLCTEPHDKKEDLLEPQEQLPPDPLPPPVSQVDAAIGLLMPPLQTPVNLSVFCDHNYTVEDTMHQRKRIHQLEQQVEKLRKKLKTAQQRCRRQERQLEKLKEVVHFQKEKDDVSERGYVILPNDYFEIVEVPA [P103D], the THAP1 transcriptional activity was 1.44.

Consider MVQSCSAYGCKNRYDKDKPVSFHKFPLTRPSLCKEWEAAVRRKNFKPTKYSSICSEHFTPDCFKRECNNKLLKENAVPTIFLCTEPHDKKEDLLEPQEQLPIPPLPPPVSQVDAAIGLLMPPLQTPVNLSVFCDHNYTVEDTMHQRKRIHQLEQQVEKLRKKLKTAQQRCRRQERQLEKLKEVVHFQKEKDDVSERGYVILPNDYFEIVEVPA [P102I], for which the THAP1 transcriptional activity turned out to be 1.31.

For the variant MVQSCSAYGCKNRYDKDKPVSFHKFPLTRPSLCKEWEAAVRRKNFKPTKYSSICSEHFTPDCFKRECNNKLLKENAVPTIFLCTEPHDKKEDLLEPQEQLPRPPLPPPVSQVDAAIGLLMPPLQTPVNLSVFCDHNYTVEDTMHQRKRIHQLEQQVEKLRKKLKTAQQRCRRQERQLEKLKEVVHFQKEKDDVSERGYVILPNDYFEIVEVPA [P102R], the THAP1 transcriptional activity came out at 1.43.

For MVQSCSAYGCKNRYDKDKPVSFHKFPLTRPSLCKEWEAAVRRKNFKPTKYSSICSEHFTPDCFKRECNNKLLKENAVPTIFLCTEPHDKKEDLLEPQEQLPSPPLPPPVSQVDAAIGLLMPPLQTPVNLSVFCDHNYTVEDTMHQRKRIHQLEQQVEKLRKKLKTAQQRCRRQERQLEKLKEVVHFQKEKDDVSERGYVILPNDYFEIVEVPA [P102S], the THAP1 transcriptional activity worked out at 1.09.

On to MVQSCSAYGCKNRYDKDKPVSFHKFPLTRPSLCKEWEAAVRRKNFKPTKYSSICSEHFTPDCFKRECNNKLLKENAVPTIFLCTEPHDKKEDLLEPQEQLPNPPLPPPVSQVDAAIGLLMPPLQTPVNLSVFCDHNYTVEDTMHQRKRIHQLEQQVEKLRKKLKTAQQRCRRQERQLEKLKEVVHFQKEKDDVSERGYVILPNDYFEIVEVPA [P102N], for which the THAP1 transcriptional activity was 1.12.

Consider MVQSCSAYGCKNRYDKDKPVSFHKFPLTRPSLCKEWEAAVRRKNFKPTKYSSICSEHFTPDCFKRECNNKLLKENAVPTIFLCTEPHDKKEDLLEPQEQLPTPPLPPPVSQVDAAIGLLMPPLQTPVNLSVFCDHNYTVEDTMHQRKRIHQLEQQVEKLRKKLKTAQQRCRRQERQLEKLKEVVHFQKEKDDVSERGYVILPNDYFEIVEVPA [P102T], for which the THAP1 transcriptional activity was 0.743.

As to MVQSCSAYGCKNRYDKDKPVSFHKFPLTRPSLCKEWEAAVRRKNFKPTKYSSICSEHFTPDCFKRECNNKLLKENAVPTIFLCTEPHDKKEDLLEPQEQLPLPPLPPPVSQVDAAIGLLMPPLQTPVNLSVFCDHNYTVEDTMHQRKRIHQLEQQVEKLRKKLKTAQQRCRRQERQLEKLKEVVHFQKEKDDVSERGYVILPNDYFEIVEVPA [P102L], the THAP1 transcriptional activity amounted to 1.12.

MVQSCSAYGCKNRYDKDKPVSFHKFPLTRPSLCKEWEAAVRRKNFKPTKYSSICSEHFTPDCFKRECNNKLLKENAVPTIFLCTEPHDKKEDLLEPQEQLPMPPLPPPVSQVDAAIGLLMPPLQTPVNLSVFCDHNYTVEDTMHQRKRIHQLEQQVEKLRKKLKTAQQRCRRQERQLEKLKEVVHFQKEKDDVSERGYVILPNDYFEIVEVPA [P102M]: the THAP1 transcriptional activity came out at 0.907.

With MVQSCSAYGCKNRYDKDKPVSFHKFPLTRPSLCKEWEAAVRRKNFKPTKYSSICSEHFTPDCFKRECNNKLLKENAVPTIFLCTEPHDKKEDLLEPQEQLPVPPLPPPVSQVDAAIGLLMPPLQTPVNLSVFCDHNYTVEDTMHQRKRIHQLEQQVEKLRKKLKTAQQRCRRQERQLEKLKEVVHFQKEKDDVSERGYVILPNDYFEIVEVPA [P102V], the THAP1 transcriptional activity was 2.39.

MVQSCSAYGCKNRYDKDKPVSFHKFPLTRPSLCKEWEAAVRRKNFKPTKYSSICSEHFTPDCFKRECNNKLLKENAVPTIFLCTEPHDKKEDLLEPQEQLPWPPLPPPVSQVDAAIGLLMPPLQTPVNLSVFCDHNYTVEDTMHQRKRIHQLEQQVEKLRKKLKTAQQRCRRQERQLEKLKEVVHFQKEKDDVSERGYVILPNDYFEIVEVPA [P102W]: the THAP1 transcriptional activity is 1.02.

With MVQSCSAYGCKNRYDKDKPVSFHKFPLTRPSLCKEWEAAVRRKNFKPTKYSSICSEHFTPDCFKRECNNKLLKENAVPTIFLCTEPHDKKEDLLEPQEQLPQPPLPPPVSQVDAAIGLLMPPLQTPVNLSVFCDHNYTVEDTMHQRKRIHQLEQQVEKLRKKLKTAQQRCRRQERQLEKLKEVVHFQKEKDDVSERGYVILPNDYFEIVEVPA [P102Q], the THAP1 transcriptional activity was 3.01.
